The target of this assay is T1, ErbB-3, endogenous in AU565 cells (human (endogenous in AU565), UniProt P21860 20-1342).
T1 construct: ErbB-3, endogenous in the human AU565 mammary carcinoma cell line; source: endogenous, AU565 lysate
In words: co-IP; AU565 cells untreated, HRG (10 ng ml-1, 15 min) or EGF (50 ng ml-1, 15 min); cytoplasmic fractions in IP buffer (50 mM Tris pH 8.0, 120 mM NaCl, 0.5% NP-40); ErbB-3 immunoprecipitation, blot with anti-p38-2G4 and anti-ErbB-3; densitometry. Particulars: partners not purified.

T1 sequence (P21860 20-1342): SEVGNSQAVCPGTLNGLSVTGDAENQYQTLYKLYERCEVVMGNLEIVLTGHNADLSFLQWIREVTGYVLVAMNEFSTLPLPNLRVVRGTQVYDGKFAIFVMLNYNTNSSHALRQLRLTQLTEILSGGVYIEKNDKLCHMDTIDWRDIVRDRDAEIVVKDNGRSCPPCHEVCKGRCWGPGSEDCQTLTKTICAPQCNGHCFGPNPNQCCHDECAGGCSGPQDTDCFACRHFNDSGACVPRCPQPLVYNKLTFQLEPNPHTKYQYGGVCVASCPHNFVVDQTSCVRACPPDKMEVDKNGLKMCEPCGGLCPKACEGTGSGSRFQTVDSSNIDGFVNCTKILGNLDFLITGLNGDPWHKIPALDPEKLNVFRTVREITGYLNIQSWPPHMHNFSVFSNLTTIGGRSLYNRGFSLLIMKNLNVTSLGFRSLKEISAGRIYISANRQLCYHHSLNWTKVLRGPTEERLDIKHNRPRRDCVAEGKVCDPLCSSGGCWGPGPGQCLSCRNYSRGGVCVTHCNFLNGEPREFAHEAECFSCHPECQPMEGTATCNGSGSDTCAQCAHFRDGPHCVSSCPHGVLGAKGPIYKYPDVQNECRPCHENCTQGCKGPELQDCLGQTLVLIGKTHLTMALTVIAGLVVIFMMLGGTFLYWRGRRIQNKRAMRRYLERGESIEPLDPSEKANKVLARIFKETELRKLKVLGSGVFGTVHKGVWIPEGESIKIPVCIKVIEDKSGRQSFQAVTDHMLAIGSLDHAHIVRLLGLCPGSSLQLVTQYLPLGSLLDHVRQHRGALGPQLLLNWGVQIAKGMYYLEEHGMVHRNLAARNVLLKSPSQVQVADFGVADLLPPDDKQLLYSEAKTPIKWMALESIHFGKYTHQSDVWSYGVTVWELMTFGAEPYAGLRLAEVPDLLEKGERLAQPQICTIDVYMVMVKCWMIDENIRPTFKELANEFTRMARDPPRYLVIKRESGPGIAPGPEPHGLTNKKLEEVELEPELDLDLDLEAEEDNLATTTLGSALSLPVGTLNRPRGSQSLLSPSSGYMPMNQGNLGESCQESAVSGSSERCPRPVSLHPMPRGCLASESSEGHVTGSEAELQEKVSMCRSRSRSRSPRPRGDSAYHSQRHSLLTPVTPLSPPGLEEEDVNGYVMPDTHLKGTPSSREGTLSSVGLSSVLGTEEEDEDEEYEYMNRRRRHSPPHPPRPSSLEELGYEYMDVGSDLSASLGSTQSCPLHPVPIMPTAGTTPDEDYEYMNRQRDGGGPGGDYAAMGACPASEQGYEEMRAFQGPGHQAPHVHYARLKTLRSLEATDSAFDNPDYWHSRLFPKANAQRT

B1: Ebp1, endogenous approximately 50 kDa protein in AU565 cells (natural protein, human (endogenous in AU565), UniProt Q9UQ80 1-394, looked up)
chain: MSGEDEQQEQTIAEDLVVTKYKMGGDIANRVLRSLVEASSSGVSVLSLCEKGDAMIMEETGKIFKKEKEMKKGIAFPTSISVNNCVCHFSPLKSDQDYILKEGDLVKIDLGVHVDGFIANVAHTFVVDVAQGTQVTGRKADVIKAAHLCAEAALRLVKPGNQNTQVTEAWNKVAHSFNCTPIEGMLSHQLKQHVIDGEKTIIQNPTDQQKKDHEKAEFEVHEVYAVDVLVSSGEGKAKDAGQRTTIYKRDPSKQYGLKMKTSRAFFSEVERRFDAMPFTLRAFEDEKKARMGVVECAKHELLQPFNVLYEKEGEFVAQFKFTVLLMPNGPMRITSGPFEPDLYKSEMEVQDAELKALLQSSASRKTQKKKKKKASKTAENATSGETLEENEAGD
notes: Ebp1 (PA2G4), endogenous full-length protein of approximately 50 kDa in the human AU565 mammary carcinoma cell line; predicted protein of 394 amino acid residues; also called PA2G4; source: endogenous, AU565 lysate
As for B1, the “ratio of Ebp1 to ErbB-3 in ErbB-3 immunoprecipitates (densitometry), EGF-treated cells” value is 1.3; the “ratio of Ebp1 to ErbB-3 in ErbB-3 immunoprecipitates (densitometry), control cells” value was 1.6; the “ratio of Ebp1 to ErbB-3 in ErbB-3 immunoprecipitates (densitometry), heregulin-treated cells” value came out at 0.3.

For the origin of these results see publication PMC2363329, “Interaction of the PA2G4 (EBP1) protein with ErbB-3 and regulation of this binding by heregulin” (British Journal of Cancer, 2000).
